Data as given in publication PMC7655567.

Substrate: O=C(O)CO
Assay: purified protein
Settings: 2 mM FMN, 5 mM MgSO4, 0.5 mM EDTA, 3 mM phenylhydrazine; measured in parallel with RcGOX

B1: AtGOX1 (Arabidopsis thaliana) (protein)
chain: MEITNVTEYDAIAKQKLPKMVYDYYASGAEDQWTLQENRNAFARILFRPRILIDVSKIDMTTTVLGFKISMPIMVAPTAMQKMAHPDGEYATARAASAAGTIMTLSSWATSSVEEVASTGPGIRFFQLYVYKNRNVVEQLVRRAERAGFKAIALTVDTPRLGRRESDIKNRFTLPPNLTLKNFEGLDLGKMDEANDSGLASYVAGQIDRTLSWKDVQWLQTITKLPILVKGVLTGEDARIAIQAGAAGIIVSNHGARQLDYVPATISALEEVVKATQGRIPVFLDGGVRRGTDVFKALALGASGIFIGRPVVFSLAAEGEAGVRKVLQMLRDEFELTMALSGCRSLKEISRNHITTEWDTPRPSARL
Question: For B1, which Km is on record?
Answer: The Km was 390 ± 100 µM.

Question: And the kcat?
Answer: Its kcat is 1.04 ± 0.237 s⁻¹.
